Laboratory results from article PMC4159076 (Cell reports, 2013).

How the values were obtained:
[1] = molecular target: NPM (Flag-NPM / GST-NPM constructs) (UniProt P06748); assay: GST pull-down, anti-Flag western blot; conditions: reference: Flag-NPM wild type; sites S125
[2] = molecular target: endogenous NPM (human cells) (human (endogenous in HEK293)) (UniProt P06748); assay: denaturing gel electrophoresis with western blot
[3] = molecular target: the molecule itself; assay: denaturing gel electrophoresis with western blot

Molecule: NPM (Flag-NPM / GST-NPM constructs) (from UniProt P06748) Flag-NPM S125A
- binding against the reference [1]: weaker

Molecule: endogenous NPM (human cells) (from UniProt P06748 1-294) (natural protein)
- stoichiometry N [2]: 6

B1: nucleophosmin (NPM) (endogenous, mouse cells) (natural protein, UniProt Q61937 1-292, looked up)
chain: MEDSMDMDMSPLRPQNYLFGCELKADKDYHFKVDNDENEHQLSLRTVSLGAGAKDELHIVEAEAMNYEGSPIKVTLATLKMSVQPTVSLGGFEITPPVVLRLKCGSGPVHISGQHLVAVEEDAESEDEDEEDVKLLGMSGKRSAPGGGNKVPQKKVKLDEDDEDDDEDDEDDEDDDDDDFDEEETEEKVPVKKSVRDTPAKNAQKSNQNGKDLKPSTPRSKGQESFKKQEKTPKTPKGPSSVEDIKAKMQASIEKGGSLPKVEAKFINYVKNCFRMTDQEAIQDLWQWRKSL
- stoichiometry N [3]: 6
